Paper PMC3093367
“And” between values parts separate entries of the source, which are not always exact repeats. Equal entries are not always repeated.

What was measured:
[1] = target: Rift Valley fever virus nucleoprotein (N), recombinant wild type (Rift Valley fever virus (strain Smithburn)) (UniProt P21700); assay: cross-linking
[2] = target: Rift Valley fever virus nucleoprotein (N), recombinant wild type (Rift Valley fever virus (strain Smithburn)) (UniProt P21700); assay: crystal structure
[3] = target: T1, RVFV nucleoprotein N (SEC fraction N2) (Rift Valley fever virus (strain …, UniProt D3K5I7 1-245)); assay: SPR; RNA immobilized via biotin-NeutrAvidin; SPR (ProteOn XPR36, […]; temperature not stated; details: protein: recombinant; tags: N-terminal thioredoxin-His6 tag removed by TEV; label: 3' biotin; single strand
T1 sequence: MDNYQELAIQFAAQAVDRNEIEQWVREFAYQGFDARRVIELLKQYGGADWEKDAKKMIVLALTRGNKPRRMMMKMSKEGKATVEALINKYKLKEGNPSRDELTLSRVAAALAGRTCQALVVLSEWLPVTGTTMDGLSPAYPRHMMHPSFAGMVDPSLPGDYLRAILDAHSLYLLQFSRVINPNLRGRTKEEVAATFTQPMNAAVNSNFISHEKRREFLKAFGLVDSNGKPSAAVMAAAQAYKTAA

Sequence of Rift Valley fever virus nucleoprotein (N), recombinant wild type (P21700 whole entry): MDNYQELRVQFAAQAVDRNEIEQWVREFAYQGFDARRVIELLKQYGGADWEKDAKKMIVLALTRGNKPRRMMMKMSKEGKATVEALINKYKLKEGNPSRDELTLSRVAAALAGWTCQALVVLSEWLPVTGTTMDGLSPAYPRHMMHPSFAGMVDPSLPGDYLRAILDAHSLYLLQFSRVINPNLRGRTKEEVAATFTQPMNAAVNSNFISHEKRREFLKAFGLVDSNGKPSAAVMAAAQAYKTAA

Molecule: Rift Valley fever virus nucleoprotein (N), recombinant wild type (from UniProt P21700 1-245) (natural protein)
- stoichiometry N [1]: 2 and 3 and 4
- stoichiometry N [2]: 6

Molecule: GAGUUGUUAAUCUUUUUUUU (ssRNA) [RNA20-3'biotin]
- Kd [3]: 3.8 µM
